# Assay results as given in article doi:10.1101/2025.11.10.687516 (bioRxiv, 2025).
# Where “and” joins values, the source holds several entries; their conditions need not be identical. Identical values can stand only once. Like-named read-outs stand apart in the source and are kept apart here.
# B1: D-tagatose-1,6-bisphosphate aldolase subunit GatZ (natural protein, E. coli, UniProt P0C8J8 1-420, looked up)
# chain: MKTLIARHKAGEHIGICSVCSAHPLVIEAALAFDRNSTRKVLIEATSNQVNQFGGYTGMTPADFREFVFTIADKVGFARERIILGGDHLGPNCWQQENADAAMEKSVELVKEYVRAGFSKIHLDASMSCAGDPIPLAPETVAERAAVLCFAAESVATDCQREQLSYVIGTEVPVPGGEASAIQSVHITHVEDAANTLRTHQKAFIARGLTEALTRVIAIVVQPGVEFDHSNIIHYQPQEAQPLAQWIENTRMVYEAHSTDYQTRTAYWELVRDHFAILKVGPALTFALREAIFALAQIEQELIAPENRSGCLAVIEEVMLDEPQYWKKYYRTGFNDSLLDIRYSLSDRIRYYWPHSRIKNSVETMMVNLEGVDIPLGMISQYLPKQFERIQSGELSAIPHQLIMDKIYDVLRAYRYGCAE
# B2: GrxB (natural protein, E. coli, UniProt P0AC59 1-215, looked up)
# chain: MKLYIYDHCPYCLKARMIFGLKNIPVELHVLLNDDAETPTRMVGQKQVPILQKDDSRYMPESMDIVHYVDKLDGKPLLTGKRSPAIEEWLRKVNGYANKLLLPRFAKSAFDEFSTPAARKYFVDKKEASAGNFADLLAHSDGLIKNISDDLRALDKLIVKPNAVNGELSEDDIQLFPLLRNLTLVAGINWPSRVADYRDNMAKQTQINLLSSMAI
# B3: PhnO (natural protein, UniProt P16691 1-144, looked up)
# chain: MPACELRPATQYDTDAVYALICELKQAEFDHHAFRVGFNANLRDPNMRYHLALLDGEVVGMIGLHLQFHLHHVNWIGEIQELVVMPQARGLNVGSKLLAWAEEEARQAGAEMTELSTNVKRHDAHRFYLREGYEQSHFRFTKAL
# Tests used:
# SEC [1] = target: the molecule itself; experiment: SEC
# SEC [2] = target: the molecule itself; experiment: SEC; remark: listed apart in the source
Protein,stoichiometry N (SEC [1]),stoichiometry N (SEC [2])
B1,2 and 4,
B2,2,
B3,,2
